# Experimental data published in US12678457B2, “Blood-brain barrier-penetrating nanotheranostics for acute and chronic neurodegenerative diseases and the like” (THE GOVERNING COUNCIL OF THE UNIVERSITY OF TORONTO, priority 2020, dated 2026).
# Assay: Pharmacokinetic study of GDNF-TPN (human GDNF ELISA)
# Format: in vivo, healthy CD-1 mice
# Conditions: after i.v. injection
# Procedure: Healthy CD-1 mice were randomly allocated into three treatment groups and received a single i. v. injection of GDNF-TPN, Free GDNF or saline at a matched dose of 15 mg GDNF/kg. At 0.5, 1, 2, 4, 6 and 24 hours after injection, whole blood was collected in heparinized tubes from ketamine anesthetized mice by cardiac puncture. Following perfusion with ice-cold saline via the left ventricle, the brains and organs were harvested, rinsed in PBS, weighted, snap-frozen and stored at −80° C. for further analysis. The mouse tissues were homogenized with RIPA buffer containing protease inhibitors and the GDNF was assayed using Human GDNF Elisa kit (Abcam, CA) under manufacture's protocol. […] Free GDNF was quickly eliminated from the blood within 2 hours after injection.
molecule,measurement,value
"glial cell line-derived neurotrophic factor (protein, UniProt P39905 78-211, looked up, Human GDNF, free protein solution used as comparator) Glial cell line-derived …: SPDKQMAVLPRRERNRQAAAANPENSRGKGRRGQRGKNRGCVLTAIHLNVTDLGLGYETKEELIFRYCSGSCDAAETTYDKILKNLSRNRRLVSDKVGQACCRPIAFDDDLSFLDDNLVYHILRKHSAKRCGCI",Time to elimination from the blood,≤ 2 h
